We go through seven molecules from PMC12502808, “Catalytic His-loop flexibility drives high activity in hyperthermophilic esterase EstE1 while preserving structural stability” (Microbiology Spectrum, 2025).

Series [1] deals with CC(=O)Oc1ccc([N+](=O)[O-])cc1. The experiment in a line: purified protein. It counts as biochemical, Pseudomonas sp. ECU1011. Particulars: 100 mM Tris-HCl, 100 mM NaCl, pH 7.5, optimal temperature (45-50°C for WT, 30°C for mutants).
In series [2] the target is EstE1 wild type (hyperthermophilic esterase). In words: SEC; Superdex 200 column equilibrated with 50 mM sodium phosphate, 150 mM NaCl, pH 7.0; molecular weight determination of the purified protein.
Substrate in series [3]: CC(=O)Oc1ccc([N+](=O)[O-])cc1
The experiment in a line: purified protein. It counts as biochemical, Pseudomonas sp. ECU1011. The following applies: 100 mM Tris-HCl, 100 mM NaCl, pH 7.5, optimal temperature (45-50°C).

Substrate in series [4]: CCCCCC(=O)Oc1ccc([N+](=O)[O-])cc1
In words: purified protein. The following applies: 100 mM Tris-HCl, 100 mM NaCl, pH 7.5, optimal temperature 70°C. In kind it is biochemical, uncultured archaeon.

Usually Km stands for the substrate concentration at which the rate is half of its maximum. Broadly, the kcat is the number of substrate molecules converted per active site and unit of time at saturation. By kcat/Km is commonly meant the second-order rate constant that governs catalysis at low substrate concentration. Consider rPPE (Pseudomonas sp. ECU1011; D287G), for which, in series [1], the Km came to 114 ± 2 µM, the kcat came out at 13 ± 1 s⁻¹ and the kcat/Km is 110000 ± 10000 M⁻¹ s⁻¹.
As for rPPE (Pseudomonas sp. ECU1011; D287E), in series [1], the Km turned out to be 6 ± 1 µM, the kcat amounted to 2.1 ± 0.1 s⁻¹ and the kcat/Km is 330000 ± 20000 M⁻¹ s⁻¹.
For orientation: stoichiometry N means a count of units in the complex or per binding partner. Regarding “EstE1 wild type (hyperthermophilic esterase) (enzyme)”, the stoichiometry N in series [2] turned out to be 2.

B1: rPPE (Pseudomonas sp. ECU1011) (protein)
chain: GSPGVEQHTKAFLEALEQGGGKPLEQLSPKDARAVLTGAQASVKVDLSGIEVKERTIQANGQSIKLQVVRPANVKGELPVFMFFHGGGWVLGDFPTHQRLIRDLVVGSGAVAVYVDYTPSPESHYPTAINQAYAATQWVAEHGKEIGVDGKRLAVAGNSVGGNMAAVVALKAKEAGTPALRFQLLLWPVTDASFETASYKQFADGHFLTTGMMKWFWDNYTTDAKAREQIYASPLRASSEQLKGLPPALVQTAEFDVLRDEGEAYARKLNAAGVTVTSVRYNGMIHDYGLLNPLSQVPAVKAAMRQAGTELKVHLQ
B1: in “purified protein [3]”, the Km is 33 ± 1 µM, the kcat turned out to be 2 ± 0.1 s⁻¹ and the kcat/Km turned out to be 60000 ± 10000 M⁻¹ s⁻¹.

B2: EstE1 (uncultured archaeon) (protein)
chain: MPLDPQIKPILERIRALSIAASPQELRRQVEEQSRLLTAAVQEPIAETRDVHIPVSGGSIRARVYFPKKAAGLPAVLYYHGGGFVFGSIETHDHICRRLSRLSDSVVVSVDYRLAPEYKFPTAVEDAYAALKWVADRADELGVDPDRIAVAGDSAGGNLAAVVSILDRNSGEKLVKKQVLIYPVVNMTGVPTASLVEFGVAETTSLPIELMVWFGRQYLKRPEEAYDFKASPLLADLGGLPPALVVTAEYDPLRDEGELYAYKMKASGSRAVAVRFAGMVHGFVSFYPFVDAGREALDLAAASIRSGLQPS
Take B2: in the series “purified protein [4]”, the Km was determined as 1520 ± 17 µM, the kcat turned out to be 2900 ± 1 s⁻¹ and the kcat/Km stood at 1.91e+06 ± 20000 M⁻¹ s⁻¹.

B3: EstE1 (uncultured archaeon; G282N) (protein)
chain: MPLDPQIKPILERIRALSIAASPQELRRQVEEQSRLLTAAVQEPIAETRDVHIPVSGGSIRARVYFPKKAAGLPAVLYYHGGGFVFGSIETHDHICRRLSRLSDSVVVSVDYRLAPEYKFPTAVEDAYAALKWVADRADELGVDPDRIAVAGDSAGGNLAAVVSILDRNSGEKLVKKQVLIYPVVNMTGVPTASLVEFGVAETTSLPIELMVWFGRQYLKRPEEAYDFKASPLLADLGGLPPALVVTAEYDPLRDEGELYAYKMKASGSRAVAVRFAGMVHNFVSFYPFVDAGREALDLAAASIRSGLQPS
Consider B3, for which, in the series “purified protein [4]”, the Michaelis constant (Km) worked out at 1330 ± 79 µM, the kcat was 1980 ± 84 s⁻¹ and the kcat/Km was 1.49e+06 ± 30000 M⁻¹ s⁻¹.

B4: EstE1 (uncultured archaeon; G282Q) (protein)
chain: MPLDPQIKPILERIRALSIAASPQELRRQVEEQSRLLTAAVQEPIAETRDVHIPVSGGSIRARVYFPKKAAGLPAVLYYHGGGFVFGSIETHDHICRRLSRLSDSVVVSVDYRLAPEYKFPTAVEDAYAALKWVADRADELGVDPDRIAVAGDSAGGNLAAVVSILDRNSGEKLVKKQVLIYPVVNMTGVPTASLVEFGVAETTSLPIELMVWFGRQYLKRPEEAYDFKASPLLADLGGLPPALVVTAEYDPLRDEGELYAYKMKASGSRAVAVRFAGMVHQFVSFYPFVDAGREALDLAAASIRSGLQPS
On to B4, for which, in “purified protein [4]”, the Km came out at 745 ± 40 µM, the kcat is 950 ± 27 s⁻¹ and the kcat/Km stood at 1.28e+06 ± 30000 M⁻¹ s⁻¹.
